Reference: the MegaScale stability set (Tsuboyama et al. 2023)

B1: HEEH_KT_rd6_3632 (parent)
chain: DAEELIELVERALKEGREIILLGVRITSEEAGKWFIEWIRRFL
B2: EEHEE_rd4_0363 (parent)
chain: VTVDIKGMEYHFDNPEEAKKFAERMAKELGGELKVENGTLKVE

Variants of: B1
Assay: folding stability dG (cDNA display proteolysis); higher = more stable
Conditions: PBS, room temperature

Folding stability dG [kcal/mol]: each site, then its substitutions
A2: H 3.66, K 3.5, V 4.05, F 4.2, L 4.31, W 4.53, S 3.42, D 3.4, E 3.44, N 3.4, R 3.54, M 3.92, P 3.65
V9: P 2.93, H 2.85, Y 2.87, L 3.59, M 3.45, W 3.15, R 2.87, A 3.19, N 2.91, C 4.04, F 3.37, Q 2.7, S 2.75, I 3.79, K 2.75, G 2.81, D 2.93, E 2.87, T 3.09

Variants of: B2
Assay: as above
Conditions: PBS, room temperature

Folding stability dG [kcal/mol] of substitutions, site by site:
K41: W 1.65, Y 1.92, N 0.986, D 0.86, E 0.957, V 2.02, G 1.01, C 1.64, T 1.73, L 1.62, P 0.852, A 1.09, S 1.45, Q 1.24, F 2, H 1.61, R 2.17, M 1.63, I 2.1
E36: Y 1.86, W 1.52
G38: P 0.815, E 1.13, F 0.552, V 0.725, S 1.19, R 0.518, I 0.967, H 1.25, N 1.68, T 1.17, L 1.02, D 1.3, Q 1.21, Y 0.501, C 1.98, A 1.13, W 0.438, K 0.662, M 1.1
V42: G 0.841, H 0.832, T 0.943, R 0.352, I 2, K 0.582, C 1.4, M 0.942, D 0.806, L 1.74, Y 0.816, E 0.783, S 0.916, F 1.02, P 0.879, A 0.786, N 0.799, W 1.06, Q 0.74
E43: V 3.14, N 1.85, W 2.64, M 2.49, Q 2.07, R 2.04, I 3.07, L 2.66, K 1.89, A 1.94, T 2.38, P 1.16, F 2.75, S 2.11, C 2.81, G 1.91, D 1.91, Y 2.91, H 2.21
T39: A 1.6, Q 1.91, K 2.43, W 1.66, E 1.2, P 0.866, N 1.84, S 1.69, L 2.13, I 2.81, G 1.4, Y 1.95, C 1.89, M 2.24, D 1.17, F 1.88, H 1.93, R 2.17, V 2.77
L40: K 0.532, Q 0.884, A 0.864, H 0.973, T 0.992, Y 2.27, S 0.813, M 1.67, G 0.861, C 1.47, N 0.85, V 1.35, P 0.807, D 0.757, F 1.94, E 0.788, I 2.6, W 2.28, R 0.347
N37: F 1.41, D 1.63, I 1.14, K 1.45, L 1.52, T 1.18, H 1.52, C 2.07, Q 1.46, P 1.26, V 1.14, G 1.97, W 0.999, A 1.4, S 1.38, R 1.14, Y 1.19, M 1.3, E 1.52
